Source: patent publication US20240100176A1 (Eli Lilly, published 2024)

How the values were obtained:
Assay in all cases: capture ELISA: Ab1 on anti-human IgG Fc, His-tagged receptor at 0.2 µg/mL, anti-His HRP
[1] = target: T1, hexahistidine tagged human IL-4Rα ECD K87D (human, UniProt P24394 26-232)
T1 construct: not shown: hexahistidine tag
Excerpt: (§1) Example 2d. […] Briefly, thirty surface amino acid residue substitutions were introduced individually into hexahistidine tagged human IL-4Rα extra cellular domain (ECD) as follows: K2D, E6R, K22D, P26R, T31R, F41A, L42G, L43G, E45R, E52R, G56R, D66R, A71R, Q82G, K87D, E94R, H107A, D108R, P124R, D125R, D143R, R148D, L155R, R160D, S164R, S168R, Q181R, P192R, K195D, or H197G. Each mutant protein having a single amino acid residue substitution as described above was transiently expressed in CHO cells and purified using standard immobilized metal affinity chromatography techniques. […] The plates were then washed 3 times with PBST and the exemplified human IL-4Rα antibody was added to the wells at a final concentration of 1 μg/mL in PBS-casein and incubated for 1 hour at room temperature. The plates were washed 3 times with PBST, the IL-4Rα mutant proteins were serially diluted 5-fold from 1 μg/mL for 3 points. in PBS-casein and added to the plate at 50 μL/well and incubated for 1 hour at room temperature. The plates were washed 3 times with PBST and a 1000-fold dilution of anti-histidine tag antibody HRP conjugate (R&D Systems, Cat. #MAB050H) in PBS-casein was added and incubated for 45 minutes at room temperature. The plates were washed 3 times, TMB substrate (Pierce, Cat. #34028) was added per manufacturer instructions, the reaction was quenched with H₂SO₄, and absorbance was read at 450 nm on an ELISA plate reader.

[2] = target: T2, hexahistidine tagged human IL-4Rα ECD T31R (human, UniProt P24394 26-232)
T2 construct: not shown: hexahistidine tag
T2 sequence (P24394 26-232 T56R): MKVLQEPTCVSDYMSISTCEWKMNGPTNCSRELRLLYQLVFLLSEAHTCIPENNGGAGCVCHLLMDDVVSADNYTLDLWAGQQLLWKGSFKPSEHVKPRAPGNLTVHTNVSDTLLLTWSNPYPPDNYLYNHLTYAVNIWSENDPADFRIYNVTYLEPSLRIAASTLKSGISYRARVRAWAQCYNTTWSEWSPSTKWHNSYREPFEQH
Excerpt: as §1

[3] = target: T3, hexahistidine tagged human IL-4Rα ECD Q181R (human, UniProt P24394 26-232)
T3 construct: not shown: hexahistidine tag
T3 sequence (P24394 26-232 Q206R): as the sequence (P24394 26-232 T56R) above, with R31T, Q181R counted along it
Excerpt: as §1

[4] = target: T4, hexahistidine tagged human IL-4Rα ECD A71R (human, UniProt P24394 26-232)
T4 construct: not shown: hexahistidine tag
T4 sequence (P24394 26-232 A96R): as the sequence (P24394 26-232 T56R) above, with R31T, A71R counted along it
Excerpt: as §1

[5] = target: T5, hexahistidine tagged human IL-4Rα ECD D143R (human, UniProt P24394 26-232)
T5 construct: not shown: hexahistidine tag
T5 sequence (P24394 26-232 D168R): as the sequence (P24394 26-232 T56R) above, with R31T, D143R counted along it
Excerpt: as §1

[6] = target: T6, hexahistidine tagged human IL-4Rα ECD E45R (human, UniProt P24394 26-232)
T6 construct: not shown: hexahistidine tag
T6 sequence (P24394 26-232 E70R): as the sequence (P24394 26-232 T56R) above, with R31T, E45R counted along it
Excerpt: as §1

[7] = target: T7, hexahistidine tagged human IL-4Rα ECD F41A (human, UniProt P24394 26-232)
T7 construct: not shown: hexahistidine tag
T7 sequence (P24394 26-232 F66A): as the sequence (P24394 26-232 T56R) above, with R31T, F41A counted along it
Excerpt: as §1

[8] = target: T8, hexahistidine tagged human IL-4Rα ECD L43G (human, UniProt P24394 26-232)
T8 construct: not shown: hexahistidine tag
T8 sequence (P24394 26-232 L68G): as the sequence (P24394 26-232 T56R) above, with R31T, L43G counted along it
Excerpt: as §1

[9] = target: T9, hexahistidine tagged human IL-4Rα ECD E94R (human, UniProt P24394 26-232)
T9 construct: not shown: hexahistidine tag
T9 sequence (P24394 26-232 E119R): as the sequence (P24394 26-232 T56R) above, with R31T, E94R counted along it
Excerpt: as §1

[10] = target: T10, hexahistidine tagged human IL-4Rα ECD H107A (human, UniProt P24394 26-232)
T10 construct: not shown: hexahistidine tag
T10 sequence (P24394 26-232 H132A): as the sequence (P24394 26-232 T56R) above, with R31T, H107A counted along it
Excerpt: as §1

[11] = target: T11, hexahistidine tagged human IL-4Rα ECD K195D (human, UniProt P24394 26-232)
T11 construct: not shown: hexahistidine tag
T11 sequence (P24394 26-232 K220D): as the sequence (P24394 26-232 T56R) above, with R31T, K195D counted along it
Excerpt: as §1

[12] = target: T12, hexahistidine tagged human IL-4Rα ECD H197G (human, UniProt P24394 26-232)
T12 construct: not shown: hexahistidine tag
T12 sequence (P24394 26-232 H222G): as the sequence (P24394 26-232 T56R) above, with R31T, H197G counted along it
Excerpt: as §1

[13] = target: T13, hexahistidine tagged human IL-4Rα ECD E52R (human, UniProt P24394 26-232)
T13 construct: not shown: hexahistidine tag
T13 sequence (P24394 26-232 E77R): as the sequence (P24394 26-232 T56R) above, with R31T, E52R counted along it
Excerpt: as §1

[14] = target: T14, hexahistidine tagged human IL-4Rα ECD S168R (human, UniProt P24394 26-232)
T14 construct: not shown: hexahistidine tag
T14 sequence (P24394 26-232 S193R): as the sequence (P24394 26-232 T56R) above, with R31T, S168R counted along it
Excerpt: as §1

T1 sequence (P24394 26-232 K112D): as the sequence (P24394 26-232 T56R) above, with R31T, K87D counted along it

B1: anti-human IL-4Rα antibody Ab1 (antibody, human IgG4 S228P, kappa)
heavy: QVQLVESGGGLVQPGGSLRLSCVASGFTFSHSSMNWVRQAPGKGLEWVSYISRATGAVYYADSVKGRFTISRDNAKNSLYLQMNSLRDEDTAVYYCAREPVFDYWGQGTLVTVSSASTKGPCVFPLAPCSRSTSESTAALGCLVKDYFPEPVTVSWNSGALTSGVHTFPAVLQSSGLYSLSSVVTVPSSSLGTKTYTCNVDHKPSNTKVDKRVESKYGPPCPPCPAPEFLGGPSVFLFPPKPKDTLMISRTPEVTCVVVDVSQEDPEVKFNWYVDGVEVHNAKTKPREEQFNSTYRVVSVLTVLHQDWLNGKEYKCKVSNKGLPSSIEKTISKAKGQPREPQVYTLPPSREEMTKNQVSLTCLVKGFYPSDICVEWESNGQPENNYKTTPPVLDSDGSFFLYSRLTVDKSRWQQGNVFSCSVMHEALHNHYTQKSLSLSLG
light: DIQMTQSPSAMSASVGDRVTITCRASQDISNYLAWFQQKPGKVPTRLIYAASSLQSGVPSRFSGSGSGTEFTLTISSLQPEDFATYYCLQWSSYPRTFGQGTKVEIKRTVAAPSVFIFPPSDEQLKSGTASVVCLLNNFYPREAKVQWKVDNALQSGNSQESVTEQDSKDSTYSLSSTLTLSKADYEKHKVYACEVTHQGLSSPVTKSFNRGEC
notes: human kappa light chain; also called anti-human IL-4Rα Ab1; unconjugated Ab1
- ELISA (OD450) [1]: 1.56 OD450
- ELISA (OD450) [2]: 1.49 OD450
- ELISA (OD450) [3]: 1.71 OD450
- ELISA (OD450) [4]: 1.57 OD450
- ELISA (OD450) [5]: 1.69 OD450
- ELISA (OD450) [6]: 1.86 OD450
- ELISA (OD450) [7]: 1.54 OD450
- ELISA (OD450) [8]: 1.7 OD450
- ELISA (OD450) [9]: 1.64 OD450
- ELISA (OD450) [10]: 1.84 OD450
- ELISA (OD450) [11]: 1.65 OD450
- ELISA (OD450) [12]: 1.6 OD450
- ELISA (OD450) [13]: 1.71 OD450
- ELISA (OD450) [14]: 1.71 OD450
